Test results taken from PMC6538167.

Target: Sodium/potassium-transporting ATPase subunit alpha-1 (human (endogenous in frontal lobe tissue)) (UniProt P05023)

## SST14 (peptide)
  total ^86Rb^+ uptake in HEK293 cells in the presence of SST14 (50 μM), compared to controls: 74.4 % of control
  total ^86Rb^+ uptake in ReN (ReNcell VM) cells in the presence of SST14 (50 μM), compared to controls: 91.5 % of control
  total ^86Rb^+ uptake in mouse N2a cells in the presence of SST14 (50 μM), compared to controls: 53.6 % of control
